Measured values: article PMC3789969, “The Allosteric Role of the AAA^+ Domain of ChlD Protein from the Magnesium Chelatase of Synechocystis Species PCC 6803*” (The Journal of Biological Chemistry, 2013)

Tests used:
Conditions in all cases: both partners purified
[1] = biological target: T1, His6-ChlD (K49A), Walker A mutant (Synechocystis sp. PCC 6803, UniProt P72772 1-676, K49A); assay: pull-down; co-purification on Ni(II) chelating Sepharose through His6-ChlD; 2 μM ChlD and 2 μM ChlI, with nucleotide (methods: 5 mM ADP; legend: ATP), 15 mM MgCl2, 50 mM Tricine, 0.3 M glycerol, pH 7.9, room temperature; SDS-PAGE of the resin
T1 construct: Magnesium chelatase subunit ChlD, Synechocystis sp; PCC 6803, with K49A in the Walker A motif; Same construct as m2 with one point mutation; also called K49A mutant; source: Rosetta2(DE3) pLysS, site-directed mutant (QuikChange) of pET9a-His6ChlD, purified

[2] = biological target: T2, His6-ChlD, wild type, of the magnesium chelatase of Synechocystis sp. PCC 6803 (Synechocystis sp. PCC 6803, UniProt P72772 1-676); assay: chelatase assembly titration (steady-state enzyme activity); apparent; ChlI titrated against 0.1 μM His6-ChlD with 0.4 μM ChlH, steady-state rate of MgDIX formation fitted to Equation 3; 50 mM MOPS/KOH, 0.3 M glycerol, 1 mM DTT, 10 mM free Mg2+, I = 0.1 with KCl, 8 μM DIX, pH 7.7, 34 °C
T2 construct: Magnesium chelatase subunit ChlD, Synechocystis sp; PCC 6803; also called wild type ChlD; wild type His6-ChlD; source: Rosetta2(DE3) pLysS, vector pET9a-His6ChlD, purified

[3] = biological target: T3, His6-ChlD (E152Q), Walker B mutant (Synechocystis sp. PCC 6803, UniProt P72772 1-676, E152Q); assay: as above
T3 construct: Magnesium chelatase subunit ChlD, Synechocystis sp; PCC 6803, with E152Q in the Walker B motif; Same construct as m2 with one point mutation; also called E152Q mutant; source: Rosetta2(DE3) pLysS, site-directed mutant (QuikChange) of pET9a-His6ChlD, purified

[4] = biological target: T4, His6-ChlD (R208A), arginine finger mutant (Synechocystis sp. PCC 6803, UniProt P72772 1-676, R208A); assay: as above
T4 construct: Magnesium chelatase subunit ChlD, Synechocystis sp; PCC 6803, with R208A removing the arginine finger; Same construct as m2 with one point mutation; also called R208A mutant; source: Rosetta2(DE3) pLysS, site-directed mutant (QuikChange) of pET9a-His6ChlD, purified

[5] = biological target: T5, His6-ChlD (R289A), Sensor II mutant (Synechocystis sp. PCC 6803, UniProt P72772 1-676, R289A); assay: as above
T5 construct: Magnesium chelatase subunit ChlD, Synechocystis sp; PCC 6803, with R289A removing the Sensor II arginine; Same construct as m2 with one point mutation; also called R289A mutant; Sensor II arginine mutant; source: Rosetta2(DE3) pLysS, site-directed mutant (QuikChange) of pET9a-His6ChlD, purified
T5 sequence (P72772 whole entry R289A): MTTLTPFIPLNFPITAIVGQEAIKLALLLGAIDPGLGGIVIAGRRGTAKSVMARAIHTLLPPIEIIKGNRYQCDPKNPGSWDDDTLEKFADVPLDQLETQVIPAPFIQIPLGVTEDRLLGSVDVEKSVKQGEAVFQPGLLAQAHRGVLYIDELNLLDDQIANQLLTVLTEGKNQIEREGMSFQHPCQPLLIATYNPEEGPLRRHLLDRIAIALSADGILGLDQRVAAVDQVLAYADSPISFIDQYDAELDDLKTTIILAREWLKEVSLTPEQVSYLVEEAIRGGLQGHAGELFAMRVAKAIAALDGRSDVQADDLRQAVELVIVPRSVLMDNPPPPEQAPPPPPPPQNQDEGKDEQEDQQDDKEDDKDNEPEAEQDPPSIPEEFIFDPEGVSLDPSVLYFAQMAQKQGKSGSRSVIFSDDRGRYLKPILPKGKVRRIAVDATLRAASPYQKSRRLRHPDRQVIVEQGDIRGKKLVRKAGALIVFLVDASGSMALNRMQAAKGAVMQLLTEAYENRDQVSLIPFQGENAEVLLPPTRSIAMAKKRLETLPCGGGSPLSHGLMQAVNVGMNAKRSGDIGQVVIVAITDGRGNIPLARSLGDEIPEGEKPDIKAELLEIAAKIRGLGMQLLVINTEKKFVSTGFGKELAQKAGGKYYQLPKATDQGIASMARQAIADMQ

T2 sequence (P72772 whole entry): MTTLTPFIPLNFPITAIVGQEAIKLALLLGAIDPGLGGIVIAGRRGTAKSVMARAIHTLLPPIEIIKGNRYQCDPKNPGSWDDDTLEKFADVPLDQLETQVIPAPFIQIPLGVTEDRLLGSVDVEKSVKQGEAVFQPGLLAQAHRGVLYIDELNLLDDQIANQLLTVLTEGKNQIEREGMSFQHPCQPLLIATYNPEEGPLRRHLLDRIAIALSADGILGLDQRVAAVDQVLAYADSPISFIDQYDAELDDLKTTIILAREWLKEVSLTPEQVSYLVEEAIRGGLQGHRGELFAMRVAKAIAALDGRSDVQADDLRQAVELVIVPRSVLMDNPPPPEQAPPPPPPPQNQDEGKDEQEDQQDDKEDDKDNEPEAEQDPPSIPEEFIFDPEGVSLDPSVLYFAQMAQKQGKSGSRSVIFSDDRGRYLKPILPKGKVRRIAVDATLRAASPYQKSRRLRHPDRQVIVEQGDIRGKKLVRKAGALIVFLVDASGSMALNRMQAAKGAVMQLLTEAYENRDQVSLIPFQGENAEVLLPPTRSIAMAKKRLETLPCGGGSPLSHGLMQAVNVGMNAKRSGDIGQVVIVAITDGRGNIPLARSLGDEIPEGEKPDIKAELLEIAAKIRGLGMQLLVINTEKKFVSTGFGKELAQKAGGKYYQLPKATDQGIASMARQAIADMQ
T4 sequence (P72772 whole entry R208A): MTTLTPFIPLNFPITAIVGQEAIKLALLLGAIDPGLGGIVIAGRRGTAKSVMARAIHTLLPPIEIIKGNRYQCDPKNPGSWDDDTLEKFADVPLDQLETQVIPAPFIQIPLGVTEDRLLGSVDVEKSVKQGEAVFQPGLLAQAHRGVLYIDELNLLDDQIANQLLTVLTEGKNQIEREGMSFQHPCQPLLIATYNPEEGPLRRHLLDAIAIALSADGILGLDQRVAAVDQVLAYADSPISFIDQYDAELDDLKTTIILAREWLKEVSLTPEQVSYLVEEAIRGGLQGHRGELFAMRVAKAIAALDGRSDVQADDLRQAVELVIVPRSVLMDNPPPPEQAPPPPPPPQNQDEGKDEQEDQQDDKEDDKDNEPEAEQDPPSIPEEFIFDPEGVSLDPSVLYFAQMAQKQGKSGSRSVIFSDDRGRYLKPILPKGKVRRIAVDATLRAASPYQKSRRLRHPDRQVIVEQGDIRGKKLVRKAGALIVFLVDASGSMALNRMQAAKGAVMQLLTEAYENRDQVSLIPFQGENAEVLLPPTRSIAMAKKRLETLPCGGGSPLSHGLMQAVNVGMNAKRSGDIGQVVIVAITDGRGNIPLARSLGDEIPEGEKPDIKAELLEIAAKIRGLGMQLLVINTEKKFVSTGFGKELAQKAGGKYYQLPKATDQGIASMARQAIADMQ
T3 sequence (P72772 whole entry E152Q): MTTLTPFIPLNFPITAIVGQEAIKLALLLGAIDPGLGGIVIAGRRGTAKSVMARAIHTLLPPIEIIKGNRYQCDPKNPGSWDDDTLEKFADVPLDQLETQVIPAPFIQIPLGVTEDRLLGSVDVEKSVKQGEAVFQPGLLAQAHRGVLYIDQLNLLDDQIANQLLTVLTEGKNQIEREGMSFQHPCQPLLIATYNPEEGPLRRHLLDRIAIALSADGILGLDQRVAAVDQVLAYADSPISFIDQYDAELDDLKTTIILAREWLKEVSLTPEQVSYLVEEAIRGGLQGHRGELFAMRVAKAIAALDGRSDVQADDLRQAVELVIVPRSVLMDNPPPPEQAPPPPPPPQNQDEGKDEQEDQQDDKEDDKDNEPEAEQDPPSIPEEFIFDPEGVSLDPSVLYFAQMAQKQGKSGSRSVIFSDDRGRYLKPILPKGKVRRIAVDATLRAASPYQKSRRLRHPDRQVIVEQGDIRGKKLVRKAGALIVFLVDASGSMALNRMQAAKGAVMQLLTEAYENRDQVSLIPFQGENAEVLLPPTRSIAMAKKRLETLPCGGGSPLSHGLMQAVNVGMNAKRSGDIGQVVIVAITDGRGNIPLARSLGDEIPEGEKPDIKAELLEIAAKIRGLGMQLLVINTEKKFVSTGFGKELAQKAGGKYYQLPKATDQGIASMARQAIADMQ
T1 sequence (P72772 whole entry K49A): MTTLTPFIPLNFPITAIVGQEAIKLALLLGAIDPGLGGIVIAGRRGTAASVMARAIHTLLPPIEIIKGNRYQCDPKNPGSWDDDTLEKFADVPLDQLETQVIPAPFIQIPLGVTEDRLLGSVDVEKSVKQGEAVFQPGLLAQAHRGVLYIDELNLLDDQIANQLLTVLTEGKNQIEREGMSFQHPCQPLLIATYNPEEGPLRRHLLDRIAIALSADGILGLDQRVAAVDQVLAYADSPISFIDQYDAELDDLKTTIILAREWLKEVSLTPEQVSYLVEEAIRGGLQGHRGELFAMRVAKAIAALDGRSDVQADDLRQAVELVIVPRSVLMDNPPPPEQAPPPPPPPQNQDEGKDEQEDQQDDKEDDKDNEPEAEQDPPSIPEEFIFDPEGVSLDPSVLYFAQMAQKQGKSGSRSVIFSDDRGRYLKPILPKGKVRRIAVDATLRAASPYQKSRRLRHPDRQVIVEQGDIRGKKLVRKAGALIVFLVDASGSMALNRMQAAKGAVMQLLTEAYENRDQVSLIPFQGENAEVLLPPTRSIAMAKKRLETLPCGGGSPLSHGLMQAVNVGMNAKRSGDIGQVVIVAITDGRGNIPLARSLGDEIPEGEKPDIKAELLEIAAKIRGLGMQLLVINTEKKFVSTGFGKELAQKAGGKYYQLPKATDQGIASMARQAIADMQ

B1: ChlI protein of the magnesium chelatase of Synechocystis sp. PCC 6803 (natural protein, UniProt P51634 1-357, looked up)
chain: MTATLAAPSKTRRVVFPFTAIVGQDEMKLALLLNVIDPKIGGVMIMGDRGTGKSTTIRALADLLPEIEVVANDPFNSSPSDPEMMSEEVRIRVDSQEPLSIVKKKVTMVDLPLGATEDRVCGTIDIEKALSEGVKAFEPGLLAKANRGILYVDEVNLLDDHLVDVLLDSAAGGWNTVEREGISIRHPARFVLVGSGNPEEGELRPQLLDRFGMHAEIRTVREPELRVKIVEQRTEFDQNPHPFCDQYQTEQEALQAKIVNAQNLLPQVTIDYDYRVKVSEVCAELDVDGLRGDIVTNRAAKALAAFEGRTEVTVDDISRVIVLCLRHRLRKDPLESIDSGSKVEKVFKRVFGVVDEA
notes: Magnesium chelatase subunit ChlI, Synechocystis sp; PCC 6803; no tag is named for ChlI; also called wild type ChlI; source: BL21(DE3), vector pET9a-ChlI, autoinducing medium ZYM-5052, purified
Question: What does the source list for B1?
Answer: binding result [1]: binds; Kd [2]: 0.17 nM; nd (concentration of binding sites for ChlI) [2]: 0.23 µM; Kd [3]: 0.35 nM; nd (concentration of binding sites for ChlI) [3]: 0.24 µM; Kd [4]: 14 nM; nd (concentration of binding sites for ChlI) [4]: 0.2 µM; Kd [5]: 52 nM; nd (concentration of binding sites for ChlI) [5]: 0.19 µM
